B1: TPR t1 (parent)
chain: GACCAAUCUGCCCUCAGAGCUCGAGAACAUCUUCGGAUGCAGAGGAGGCAGGCUUCGGUGGCGCGAUAGCGCCAACGUCCUCAACCUCCAAUGCAUCCCACCACAUGAUGAUGCCUGAAGAGCCUUGGUUUUUUG

Variants of: B1
Experiment: polymerase ribozyme fitness, log enrichment relative to wild type (log ratio); higher = more active; in vitro selection for triplet polymerase activity
Summary of the method: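 Genotype fitness is the logarithm of its enrichment divided by wild-type enrichment, using inverse-variance-weighted averages of replicates. That logarithm is base 2. Enrichment was measured by Illumina sequencing of input and output libraries from one triplicate in vitro selection round, with frozen incubation at −7 °C, on PCR-built, transcribed mutant libraries of each subunit of a heterodimeric triplet polymerase ribozyme, retaining genotypes with ≥10 input reads and ≥1 read per output.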

Variant | polymerase ribozyme fitness (log ratio)
G35A C114G | -5.64
G35A G36U U112A | -5.59
G35A G44U C115A C124G | -2.88
G35A G48A G71A C89A C99A C101U | -7.55
G35A G48C C56A C123G | -2.99
G35A G48U | -3.78
G35A G51A G60U C124U | -6.94
G35A G71A | -4.49
G35A G120C | -2.79
G35A G122U C123G | -4
G35C A43G G60A C62U C64G A84U C98U A111U A121U | -7.98
G35C A50G C53G U67G C124A G135U | -6.69
G35C A95U C99U C104A A111C | -6.57
G35C C72U | -4.96
G35C C72U C114U | -6.13
G35C C73A | -5.42
G35C C76G C99G A100C U112A G120A | -6.53
G35C C114U | -5.79
G35C G36A G51C C123G | -6.59
G35C G45U G61A A121G | -3.1
G35C G52U C53G A90G C98U | -6.7
G35C G61C C64A C123G | -6.08
G35C G63C | -5.87
G35C U59G C76A C98A | -5.8

Variant | polymerase ribozyme fitness (log ratio)
G35U A74G C89U C115A | -6.17
G35U A75U C124A | -4.78
G35U A90C C97G A121C | -7.34
G35U A121G | -3.56
G35U C53U C124G | -4.66
G35U C64G C97G G117C | -7.13
G35U C64U A90U U106A C115G G117A A119G | -6.88
G35U C79A | -6.66
G35U G36U C124U | -5.29
G35U G42A | -6.8
G35U G63U C72U | -7.14
G35U G69A A105C U106A G120U | -6.28
G35U G69U | -0.908
G36A A37G A111G G113C A121C | -5.88
G36A A37G C70A | -3.19
G36A A68G | -3.57
G36A A121C | 0.979
G36A A121U U133A | 1.79
G36A C40A C56U G110A U116A C124A U125G | -7.28
G36A C49A C56G C80A A90G | -4.92
G36A C49A C56U | -0.697
G36A C49U C64U C86G U92C | -6.86
G36A C56U | -0.261
G36A C64U C88U C101G | -1.84

Variant | polymerase ribozyme fitness (log ratio)
G36A C72G G110U | -4.37
G36A C72G G117A | -3.71
G36A C72U | -1.29
G36A C85A G117A | -3.37
G36A C86G | -2.04
G36A C89A | -2.49
G36A C114A | -2.96
G36A G42A A74G G127C | -3.95
G36A G42C A84U U106A G110C C123U G128A | -7.57
G36A G42U | -2.99
G36A G44A G61U G77U A84U | -3.54
G36A G45C A83G C101G | -2.84
G36A G45U U59A C72G C97G C98U C102A A111G | -6.75
G36A G47A G61U | -1.37
G36A G48A U112A U131C | 0.386
G36A G52A A66G | -2.6
G36A G52A G63U | -3.22
G36A G58C U116G | -3.49
G36A G61C | -2.63
G36A G61U C72G G77A C82A C98U | -6
G36A G61U U96G | -1.71
G36A G63A C94U U132A | -1.7
G36A G71U | -0.815
G36A G107A C124A | -7.46

Variant | polymerase ribozyme fitness (log ratio)
G36A G113U A119U | -4.19
G36A G127C | -1.81
G36A G127U U133G | -3.26
G36A U55G C115A | -1.03
G36A U55G G120C | 0.249
G36A U59C U126G | -2.55
G36A U81A | -1.3
G36A U96G | -1.67
G36A U106A C124A U129G | 0.262
G36C A37C A41G G61U | -4.4
G36C A37G C79A | -2.53
G36C A37U G48C A91U C115U | -4.92
G36C A50C C114U | -6.09
G36C A68G C79G C98U C115U C124U | -6.44
G36C A91C | -1.87
G36C C40A C62U C72U | -4.22
G36C C49A C53A G61C C76U A119G | -6.33
G36C C49U A74G C101G A119U | -3.8
G36C C64U | -1.65
G36C C64U G93A A100C | -3.67
G36C C70G G110C U129G | -5.33
G36C C72A C94A C104U | -3.64
G36C C72A G122A | -1.22
G36C C72G C102A | -4.94

Variant | polymerase ribozyme fitness (log ratio)
G36C C76G | -1.25
G36C C102U | -3.5
G36C G39C C62U C124G U130G | -1.27
G36C G44A A74U C79G C101U | -4.54
G36C G44A G71U A75G C89A | -4.65
G36C G44C C73U G110C C124U U125A | -4.74
G36C G45C | -2.04
G36C G47U U55G G61U C101U U132A | -3.11
G36C G51A C70A C101U | -7.34
G36C G51A C101U | -3.92
G36C G58C C101G A111U | -5
G36C G61U A95C | -2.42
G36C G63U A83G U126G | -5.42
G36C G65U C72U G107A G117C G128A U133A | -7.08
G36C G69U A91U C94A G113C | -3.07
G36C G110A | -1.62
G36C G120C | 0.237
G36C G128C | -4.43
G36C U78C | -1.49
G36C U81A A84U | -2.7
G36C U106G | -3.63
G36C U112A | -1.13
G36C U129A | -2.27
G36C U130G | -1.39

Variant | polymerase ribozyme fitness (log ratio)
G36U A37U | -1.98
G36U A41U | -2.77
G36U A46C | -2.09
G36U A46U C72A C97U | -1.58
G36U A50C G60A | -2
G36U A50U A118U | -1.34
G36U A68G | -3.62
G36U A84C C85G C86U | -2.86
G36U A103U C114U | -5.26
G36U A118G G128A | -3.98
G36U A121C U125A G127U G128C | -0.954
G36U C40G | -2.33
G36U C49U | -2.72
G36U C49U A95U | -3.5
G36U C53A C89G | -2.84
G36U C53U G61A A118G | -1.48
G36U C53U G63A C123G | -0.478
G36U C56U C97A | -0.495
G36U C64U C115G G117U U132A | -6.32
G36U C64U C123G | 0.799
G36U C70G | -4.21
G36U C70G C101A G120A | -3.68
G36U C72A C85A U92A U112A U129A | -5.86
G36U C72U U96G G120C | -0.581

Variant | polymerase ribozyme fitness (log ratio)
G36U C76A C98G U109C C114G | -6.07
G36U C79A | -3.02
G36U C79U | -1.62
G36U C80A U81A A121U U130C | -0.239
G36U C82A G113U | -3.08
G36U C88G A91U | -6.86
G36U G39C C124G | -0.0867
G36U G39C G69A C82A G120U | -5.69
G36U G39U C70U A111G | -4.55
G36U G42U C56G C70U U112C C124U | -2.29
G36U G44A G71U | -3.19
G36U G44A U112A | -0.0288
G36U G44C C70U | -2.13
G36U G45A A119U | -1.61
G36U G45C C89U U132A | -2.62
G36U G48A C70U C82U U133G | -1.79
G36U G52C U78G A95G | -2.15
G36U G52U | -2.2
G36U G60C | -1.25
G36U G60C A84C | -1.87
G36U G60C G69U A100U | -4.04
G36U G61A U78A | -0.679
G36U G61C U126C | -4.78

Source: the RNAGym collection of RNA variant scans (doi:10.1073/pnas.2313332121)
